Where “and” joins values, the source holds several entries; their conditions need not be identical. Equal values may be shown once.
Target: pyruvate kinase M2 (mouse (endogenous in kidney tissue)) (UniProt P52480)
Test: cross-linking; mouse kidney tissue incubated in 250 uM disuccinimidyl suberate (DSS) for 30 min at room temperature, 8% SDS-PAGE, Western blot for PKM2; control mice, HFD-STZ-induced DN mice, and mice given acrolein scavengers (NAC, hydralazine, carnosine)

Sequence of pyruvate kinase M2, P52480 1-531 (enzyme) (P52480 whole entry): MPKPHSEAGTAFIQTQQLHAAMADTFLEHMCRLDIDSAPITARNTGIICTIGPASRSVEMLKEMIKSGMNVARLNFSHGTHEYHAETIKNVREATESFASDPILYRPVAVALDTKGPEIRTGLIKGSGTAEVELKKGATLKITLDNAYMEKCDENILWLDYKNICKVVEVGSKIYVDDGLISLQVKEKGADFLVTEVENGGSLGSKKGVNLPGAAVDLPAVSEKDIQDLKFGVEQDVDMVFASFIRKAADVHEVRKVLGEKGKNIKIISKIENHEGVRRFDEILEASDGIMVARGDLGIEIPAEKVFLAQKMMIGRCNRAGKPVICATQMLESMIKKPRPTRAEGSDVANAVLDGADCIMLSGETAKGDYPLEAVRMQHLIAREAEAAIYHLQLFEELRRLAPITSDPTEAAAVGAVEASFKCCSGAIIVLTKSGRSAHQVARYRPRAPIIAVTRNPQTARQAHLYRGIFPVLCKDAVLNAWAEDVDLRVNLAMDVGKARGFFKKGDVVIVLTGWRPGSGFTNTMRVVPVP

- stoichiometry N: 2 and 4
Substance: pyruvate kinase M2, P52480 1-531 (enzyme)
